Measured values: paper PMC12357932 (Nature Communications, 2025)

B1: C-terminal domain of F-BclA (F-BclA-CTD; BTK_RS34675 residues 721-863) (domain or fragment)
chain: MHHHHHHSVGLTNYLYVFDTTNQSIAVGSSVTFNTNGPITGTALSHITGTGNIIINTLGTYVAEFQLQASRENQFSLELNGTPIPGGRFGTGSPHSINQGTAAFTVTVVPSTLTLINNTSSAGTITLSNSDGGSLTNVSASISIFQVG

Key:
[1] = molecular target: ExsF with the first 23 residues replaced by an N-terminal 6xHis tag (B. paranthracis); test: crystal structure
crystal structure = molecular target: the molecule itself; test: crystal structure

| Molecule | stoichiometry N [1] | stoichiometry N (crystal structure) |
| --- | --- | --- |
| ExsF with the first 23 residues replaced by an N-terminal 6xHis tag (domain or fragment) | 3 | – |
| B1 | – | 3 |
